According to patent EP4725966A1, “HUMAN EPIDERMAL GROWTH FACTOR 3 ANTIBODY, PREPARATION METHOD THEREFOR, AND USE THEREOF” (priority 2023, dated 2024):

Legend:
[1] = test system: A375 cells overexpressing human HER3; assay: ADC cytotoxicity, CellTiter-Glo; format: cell-based; details: Example 21, FIG. 13
[2] = test system: HER3-overexpressing A375 cells; assay: Cell imaging of internalization; format: cell-based; details: 100 nM, FIG. 11
Experimental: A cell imaging microplate detection system was used to monitor the internalization of hHE4-G1W, hHE4-G1W-DXd, patritumab, and patritumab-DXd after binding to HER3 on the surface of A375 tumor cells. hHE4-G1W, hHE4-G1W-DXd, patritumab, and patritumab-DXd (each 100 nM) were incubated with HER3-overexpressing A375 cells at 4°C for 30 minutes, respectively. Unbound antibodies were removed by washing, and PE-labeled goat anti-human Fc secondary antibody (Jackson) was added. The mixture was incubated at 4°C for 30 minutes, and then the unbound secondary antibody was removed by washing. When the antibodies were bound to the surface of A375 cells and had not yet undergone internalization, these samples were designated as the 0h samples. Fluorescence images were acquired using a Biotek Cytation 1 imaging reader. Cells were then incubated at 37°C for 3 hours and imaged again.

[3] = test system: HER3-expressing HCC1569 cells; assay: ADC cytotoxicity; format: cell-based; details: FIG. 13
Experimental: (§1) A375 and OVCAR3 cells were seeded in 96-well plates at 5,000 cells per well, and gradient-diluted ADCs (cHE4-G1W-DXd, cHE5-G1W-DXd, cHE7-G1W-DXd, patritumab-DXd, and IgG-DXd) were added. After incubation at 37°C for 5 days, cell viability was measured using CellTiter-Glo (Promega) to evaluate cytotoxicity of the ADCs.
(§2) The cytotoxicity of antibody-drug conjugates based on hHE4-G1W against HER3-expressing HCC1569, A375, and JIMT-1 tumor cells was tested. Antibody-drug conjugates were prepared as described in Example 11. Hydrophobic interaction chromatography indicated the antibody-to-Dxd ratios for cHE4-G1W-DXd, hHE4-G1W-DXd, patritumab-DXd, and negative control IgG-DXd were 1:7, 1:8, 1:7.8, and 1:8, respectively.

[4] = test system: human HER3-overexpressing JIMT-1 cells; assay: ADC cytotoxicity; format: cell-based; details: FIG. 13
Experimental: as §1, §2

SW620 tumor = assay: Tumor inhibition in SW620 tumor-bearing mice; format: in vivo, Female SCID mice; details: 3 mg/kg, single dose, FIG. 14
Experimental: The anti-tumor efficacy of hHE4-G1W-DXd and cHE5-G1W-DXd was evaluated in SW620 tumor-bearing mice. Female SCID mice were subcutaneously injected with SW620 cells in the dorsal region to establish the xenograft model. After tumor establishment, mice were randomly divided into nine groups and treated with a single dose. Three groups served as negative controls: one group received PBS, and two groups received IgG-DXd at low dose (3 mg/kg) and high dose (6 mg/kg), respectively. Experimental groups were administered with hHE4-G1W-DXd, cHE5-G1W-DXd, or patritumab-DXd at 3 mg/kg or 6 mg/kg. The average Dxd-to-antibody ratio was 8. Mouse body weights and tumor volumes were measured.

patritumab-DXd [reference compound] was tested. Which “cytotoxicity against A375 cells” value [1] did it give?
Its value is “significant cytotoxicity”.

What about the “binding to HER3 on the surface of A375 cells” value ([2]; 0 hour) of the same substance?
The value was “bound to HER3 expressed on the cell surface”.

What about the “internalization into A375 cells” value ([2]; after 3 hours at 37°C) of the same substance?
The value was “internalized into the A375 cells”.

What about the “cytotoxicity against HCC1569 cells” value [3] of the same substance?
The value was “significant cytotoxicity”.

And the “cytotoxicity against JIMT-1 cells” value [4]?
Its value is “significant cytotoxicity”.

And the tumor growth (SW620 tumor)?
The tumor growth was “significant tumor growth at day 14 postadministration”.
